Measured values published in patent US7981691B2, “Two helix binders” (General Electric Company, priority 2006, dated 2011).
Positions of bridges follow the written chain, without caps; N, C: chain ends. Non-standard residues stand in square brackets, D forms with d. No end group written: not given here. Aib = CC(C)(N)C(=O)O

Tests used:
[1] = CD spectroscopy of 2-helix scaffolds (secondary structure, helicity); type: physicochemical; conditions: Circular Dichroism
Description: Secondary structure of different 2-helix scaffold was determined by CD analysis. All CD spectra were obtained on an JASCO J-815 CD spectropolarimeter in the wavelength range of 250-185 nm using 1 nm bandwidth, 0.5 nm resolution, 4 seconds averaging time, 3 scan per sample, 0 second delay, and a path length of 1 mm. Spectra were recorded at 20° C., unless otherwise noted, in a thermostated circular cuvette, with peptide concentrations of 15 μM in 13 mM of K2HPO4 buffer at pH8. Results are reported as mean residue ellipticity (MRW).

[2] = target: T1, extracellular domain of the Her2/neu antigen (Fc-Her2) (Homo sapiens, UniProt P04626); experiment: SPR (BIAcore) binding of two helix peptides to immobilized Fc-Her2; conditions: relative binding by SPR
T1 construct: The extracellular domain of the Her2/neu antigen was obtained as a conjugate with the Fc region of human IgG; purchased R&D Systems

| binding to target molecule Her2 (in words) [2] | Sequence | helicity / population of helix conformers (in words) [1] |
| --- | --- | --- |
| unable to bind target molecule | VENKCNKEMRNAYWEIALLPNLNNQXKRAXIRSXYDDPC (VENKCNKEMRNAYWEIALLPNLNNQ[Aib]KRA[Aib]IRS[Aib]YDDPC-NH2; disulfide 5-39 (inferred)) [SEQ. ID. NO. 25] | helicity increases |
| unable to bind target molecule | VENKCNKXMRNXYWEXALLPNLNNQQKRAFIRSLYDDPC (VENKCNK[Aib]MRN[Aib]YWE[Aib]ALLPNLNNQQKRAFIRSLYDDPC-NH2; disulfide 5-39 (inferred)) [SEQ. ID. NO. 24] | helicity increases |
| unable to bind target molecule | VENKCNKXMRNXYWEXALLPNLNNQXKRAXIRSXYDDPC (VENKCNK[Aib]MRN[Aib]YWE[Aib]ALLPNLNNQ[Aib]KRA[Aib]IRS[Aib]YDDPC-NH2; disulfide 5-39 (inferred)) [SEQ. ID. NO. 26] | helicity increases |
